According to the nanobody polyreactivity screen of Harvey et al. (2022):

Assay: yeast display, Sf9 membrane polyspecificity reagent, FACS + sequencing; frameworks hold sequencing errors
Method in brief: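 Polyreactivity labels are assigned by the sorting gate from which each nanobody was recovered. The gates were low and high (top ~1%), set on anti-HA fluorescence for expression and streptavidin fluorescence for reagent binding. Before sorting, galactose-induced (36–48 hours) yeast display cells were stained for 1 hour at 4 °C with 10% biotinylated, detergent-solubilized Sf9 membrane reagent.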

With “QVQLVESGGGLVQAGGSLRLSCAASGIIIPYYAMGWYRQAPGKERELVAAISSGGSTNYADSVKGRFTISRDNAKNTVYLQMNSLKPEDTAVYYCAAKYTSYASWPIWVVDQFDYWGQGTQVTVSS” the “polyreactivity (PSR sort gate)” value was “low polyreactivity”.

In the case of “QVQLVESGGGLVQAGGSLRLSCAASGSTFDYYTMGWYRQAPGKERELVAAISYSGSRTYYADSVKGRFTISRDNAKNTVYLQMNSLKPEDTAVYYCAAVYRAKYGYWGQGTQVTVSS”, the “polyreactivity (PSR sort gate)” value is reported as “high polyreactivity”.

With “QVQLVESGGGLVQAGGSLRLSCAASGRTFYYYAMGWYRQAPGKEREFVASISYSGARTYYADSVKGRFTISRDNAKNTVYLQVNSLKPEDTAVYYCDAGYPLGGDYWGQGTQVTVSS” the “polyreactivity (PSR sort gate)” value was “high polyreactivity”.

For “QVQLVESGGGLVQAGGSLRLSCAASGTFDYYDMGWYRQAPGKERELVAGITSGGSTDYADSVKGRFTISRDNAKNTVYLQMNSLKPEDTAVYYCAADPFRIHTYDYWGQGTQVTVSS”, the “polyreactivity (PSR sort gate)” value was “low polyreactivity”.

With “QVQLVESGGGLVQAGGSLRLSCAASGSTFYSNAMGWYRQAPGKERELVAGIDTSDGSTNYADSVKGRFTISRDHAMNTVYLQMNSLKPEDTAVYYCAADYTQPGFVSYDYWGQGSQVTVSS” the “polyreactivity (PSR sort gate)” value was “low polyreactivity”.

In the case of “QVQLVESGGGLVQAGGSLRLSCAASGRIFDFYAMGWYSQAPGKERELVAAIASSVGNTYYADSVTGRFTISRDNAKNTVSLQMISLKPEDTAVYYCADYSYVRSSYEVEYDYWGQGTQVTVSS”, the “polyreactivity (PSR sort gate)” value is reported as “low polyreactivity”.

With “QVQLVESGGGLVQAGGSLRLRCAASGNIFDRYAMGWYRQAPGKERELVAAISWSDGTTYYADSVKGRFTISRDNAKNTVYLQMNTLKPEDTAVYNCAGVYTYPLGYYHYTYDDWGQGTQVSVSS” the “polyreactivity (PSR sort gate)” value was “low polyreactivity”.

For “QVQLVESGGGLVQAGGSLRLSCAASGRIFKYYTMGWYRQATGKEREFVASITGSGGTTYYADSVKGRFTISRDNAKNTVYLQMNSLKPEDTAVYYCNAYSYPYWYRYYYWGQGTQVTVSS”, the “polyreactivity (PSR sort gate)” value was “high polyreactivity”.

With “QVQLVESGGGLVQAGGSLRLSCAASGSTFVWYAKGWYIQAPGKERELVAAINFGGTTYYADSVKGRFTISRDNAKNTVYLQMNSLKPEETAVYYCATEYDYGSWFPDGWGIFDYWGQGTQVTVSS” the “polyreactivity (PSR sort gate)” value was “low polyreactivity”.

With “QVQLVESGGGLVQAGGSLRLSCAASGIILRRYAMGWYRQAPGKERELVARISYRGGRTNYADSVKGRFTISRDNAKNTFYLEMNSLKPEDTAVYYCDAVDWYYHEGTAYNYWGQGTQVTVSS” the “polyreactivity (PSR sort gate)” value was “high polyreactivity”.

With “QVQLVESRGVLVQAGGSLRLSCAASGFTFDYNAMGWYRQAPGKERELVAVISSSGSRTYYADSVKGRFTISRDNAKNTVYLQMNSLKPVDTAVYYCARDNWQWYPSTWYDYWGQGTQVTVSS” the “polyreactivity (PSR sort gate)” value was “high polyreactivity”.

In the case of “QVQLVESGGGLVQAGGSLRLSCAASGSIFEYYTMGWYIPAPGKERECVAAITFTGDSTYYADSVKGRFTISRDNAKNTVFLQMNSLKPEDTAVYYCNADSVTYDGEYDYWGQGTQVTVSS”, the “polyreactivity (PSR sort gate)” value is reported as “low polyreactivity”.

In the case of “QVKHVESGGGLVQAGASLRLSCAASGSIFAYNAMGCYIQAPGKERELVATISRGGNTNYADSVKGRFTISRDNAKNSVYLQMNSLKPEDTAVYYCNVLGRDIDHEYGYWGQGTQVTVSS”, the “polyreactivity (PSR sort gate)” value is reported as “high polyreactivity”.

With “QVQLVESGGGLVQAGGSLRLSCAASGNTDVGYAMGWYRQAPGKETEFVAAISSRTGRTYYADTVKGRFTISRDNAKNTVFLQMISLKPEDTAVYYCAAVRGAPRYRYDYWGQGTQVTVSS” the “polyreactivity (PSR sort gate)” value was “high polyreactivity”.

For “QVELVESGGGLVQAGGSLRLSCAASGLTFVSYAMGWYRQAPGKERELVAAISRSGGSTYYADSVKGRFTISLDNAKNTVYLQMNSLKPEDTAVYYCNAYSYVEFWAVYRYDYWGQGTQVTVSS”, the “polyreactivity (PSR sort gate)” value was “high polyreactivity”.

For “QVQLVESGGGLDQAGGSLRLSCAASGIIFEQYAMGWYRQAPGKERELVAAISSGGTTYADSVKGRFTISRDNAKNTVYLQMNSLKPEYTAVYYCNDDLSWHGPDWSDYEYDYWGQGTQVTVSS”, the “polyreactivity (PSR sort gate)” value was “low polyreactivity”.

With “QVQLVESGGGLVQAGASLRLSCAASGRTFSNYEMGSYRQAPGKERELVAAISGTGGTTYYADSVKGRFTISRVNEKNTVYLQMNSLKPEDTAVYYCAARSHTGYFPPSYYSGQGTQVTVSS” the “polyreactivity (PSR sort gate)” value was “high polyreactivity”.

For “QVQLVESGGGLVQAGGSLRLSCAASGLTLSYYAMGWYRPAPGKEMELVAAISSGGSTYYADSVKGRFTISRDNAKNTVYLQMNSLKPEDTAVYYCAAQWWRLYWEYYYWGQGTQVTVSS”, the “polyreactivity (PSR sort gate)” value was “low polyreactivity”.

In the case of “QVQLVESGGGLVQAGGSLRLSCAASGYIFRGYVMGWYRQAPGKERELVAAISYGDGGTYYADSVKGRFTLSRDNAKNTVYLQMNSLKPEDTAVYYCAAPPYSFWGDYYSAGYYYWGQGTQVTVSS”, the “polyreactivity (PSR sort gate)” value is reported as “low polyreactivity”.

For “QVQLVESGGGLVQAGGSLRVSCAASGSIFRWYTMGCYRQAPGKEREFVADISWSGGRTYYADSVKGRFTISRDNASYSVYLQMNCLKPEDTAVYYCNAEHNTRYDYWGQGTQVSVSS”, the “polyreactivity (PSR sort gate)” value was “low polyreactivity”.

In the case of “QLQLVESGGGLVQAGGSLRLSCAASGSIFYPYAMGWYRQAPGKERELVATINEDGGSTYYADSVKGRFTISRDNAKNTVYLQMNSLKQEDTAVYYCNTDHFEDYHTDFWSDYEYWGHGTQVTVSS”, the “polyreactivity (PSR sort gate)” value is reported as “low polyreactivity”.

With “QVQLVESGGGLVQAGGSLRLSCAASGSTLYYYVMGWYRQAPGKERELVAAISSSGDSTYYADSVKGRFTISRDNAKNTVYLQMTSLKPEDTAVYYCNAGWYFYGETTDDYWGQGTQVTVSS” the “polyreactivity (PSR sort gate)” value was “low polyreactivity”.

With “QVQLVESGGCLVQAGGSLRLSCAASGSTFTYNAMGWYRQAPGKERELVAAISRTANANYADSVKGRFTISRDNAKNTVYLQMNSLKPEDTAVYYCADDFLDSKVHVRFGYWGKGTQVTVSS” the “polyreactivity (PSR sort gate)” value was “low polyreactivity”.

For “QVQLVESGGGLVQAGGSLRLSCAASGRIFSLYAMGWYRQAPGKERELVAAISWSGGTTYYADSVKGRFTISRDNAKNTVYLQMNSLKPEDTAVYYCAADTGTGLDWGQGSQVTVSS”, the “polyreactivity (PSR sort gate)” value was “high polyreactivity”.

In the case of “QVQLVESGGGLVQAGGSLRLSCSASGRTFGYNAMGRYRQEPGKERELVAAINWSGASTYYADSVKGRFTISRDNAKNTVYLQMNSLKPEDTAVYYCAADYSYIYGFDYWGQGTQVTVSS”, the “polyreactivity (PSR sort gate)” value is reported as “low polyreactivity”.

In the case of “QVQLVESGGGLVQAGGSLRLSCAASGRTFYRNAMGWYKQAPGKERELVAAISRSGGSTYYADSVKGRFTISRDNAKNTVYLQMNSLKPEDTAVYYCNKRYPLGTEYYYWGLGTQVTVSS”, the “polyreactivity (PSR sort gate)” value is reported as “high polyreactivity”.

For “QVQLVESGGGLVQAGGSLRLSCAASGSHFSSYVMGGYRQGPGKERELVAAISSIGGSTYYADSVKGRFTISRDNAKNTVYLQMNSLKPEDTAVYYCAAEPPGSTYEGGYWGQGTQVTVSS”, the “polyreactivity (PSR sort gate)” value was “low polyreactivity”.

In the case of “QVQLVESGGGLVQAGGSLRLSCAASGGIFGRYAMGWYRQAPGKERELVAGISYSGGSTYYADSVKGRFTISRDNAKNSVYLQMNSLKPEDTAVYYCATGGYVWYRSVNVWTRMDYWGQGTQVTVSS”, the “polyreactivity (PSR sort gate)” value is reported as “high polyreactivity”.

With “QGQIVESGGGLGQAGGSLRLSCAASGSIFWANAMGWYSQSPWKERELVAAISSSGGRTYYADSVKGRFTISRDNAKNTVYLQMNSLKPEDTAVHYCNKLRLPYYEQGDYWGQGTQVTVSS” the “polyreactivity (PSR sort gate)” value was “high polyreactivity”.

For “QVQLVESGGGLVQAGGSLRLSCPASGRTMVLNMGCYRHAPGKERELVATINSGGSTYYADSVKGRFTISRDNAKNTVYLQMNSLKPEDTAVYYCAVLSSDGKFDYWGQGTQVTVSS”, the “polyreactivity (PSR sort gate)” value was “low polyreactivity”.

With “QVQLVESGGGLVQAGGSLRLSCAASGFTFHYYDMGWYRQAPGKERELVASISWSGGDTYYADSVKGRFTISRDNAKNTVYLQMNSLKPEDTAVYYCAADPTQEVQYLTPYTYDYWGQGTQVTVSS” the “polyreactivity (PSR sort gate)” value was “low polyreactivity”.

With “QVKLVEAGGGLVQAGGSLRFSCAASGNIFQGNARGWYREAPGKERELVAAITYSGAGTYYADSVKGRFTISRDNAKNSVYLQMNSLNPEDTAVYYSAADWYTFEYDYWGQGTQVTVSS” the “polyreactivity (PSR sort gate)” value was “low polyreactivity”.

With “QVQLVESGGGLVQAGGSLRLSCAASGSIFVTYAMGGYRQAPGKERELVAAISTSGGSTYADSVKGRFTISRDNAKNTVYLQMNSLKPEDTAVYYCNADDPGYAVPWYWFKFDYWGQGTQVTVSS” the “polyreactivity (PSR sort gate)” value was “low polyreactivity”.

With “QVQLVETGGGLVHAGGSLRLSCAASGSTISLYARGWYRQAPVKERELVASITWGGGSTYADSVKGRFTISRDNAKNTVYLQLNRLKPEDTAVYYCARKYRYRVLYDFAYDHWGQGTQVTVSS” the “polyreactivity (PSR sort gate)” value was “low polyreactivity”.

In the case of “QVQLVESGGGLVQAGGSLRLICAASGFIFWIYAMGWYRQAPGKEREFVAVITYRGDTTYYADSVKGRFTISRDNAKNTVYLQMNSLKPEDTAVYYCAAYTVQKYGYWGQGTQVTVSS”, the “polyreactivity (PSR sort gate)” value is reported as “low polyreactivity”.

For “QVQLVESGGGLVQAGGSLRLSCAASGSIFDPYAMGWYRQAPGKERELVAAIRWGGGTTYYADSVKGRFTISRDNSKITVSLQMNSLKPEDTAVYYCAASWDWYDYWYDYWGQGTQVTVSS”, the “polyreactivity (PSR sort gate)” value was “high polyreactivity”.

For “QVQLVESGGGLVQAGGSLRLSCAASGRTFHSNAMGWYRKAPGKERELVAAIRFGGGSTYYADSVKGRFTISRDNAKNTVYLQMNSLKPEDTAVYYCNASPLWIGWEIVPVGSSHYDYWGQGTQVTVSS”, the “polyreactivity (PSR sort gate)” value was “low polyreactivity”.

In the case of “QVQLVESGGGLVQAGGSLRLSCAASGFIFWQYTMGWYRQAPGKERELVAAITWRGTRTYADSVKGRFTISRDNAKNTVYLQMNSLKPEDTAVYYCAAREYYHGPDGGYYGYDYWGQGTQVTVSS”, the “polyreactivity (PSR sort gate)” value is reported as “high polyreactivity”.

In the case of “QVQLVESGGGLVQAGGSLRLSCAASGRTLVWYTMGWYRQAPGKEREFVAVITTGSGSTYYADSVKGRFTISRDNAKNTVYLQMNSLKPEDTAVYYCNAGYGGYSYHYPPYEYWGQGTQVTVSS”, the “polyreactivity (PSR sort gate)” value is reported as “low polyreactivity”.

In the case of “QVQLVESGGGLVQAGGSLRLSCAASGSIFVTNAMGWYRQAPGKERELVAAISWRGGSTYYADSVKGRFTISRDNAKNTVYLQMNSLKPEDTGVYDCNTYHPYWGSGFDYWGLGTQVTVSS”, the “polyreactivity (PSR sort gate)” value is reported as “low polyreactivity”.

With “QVQLVESGGGLVQAGGSLGVSCAASGSTFRTYAMGWYRQAPGKERELVAAISQRGGSTYYADSVKGRFTISRDNAKNTVYLQMNSLTPEDSAVYYCAARYGVRYIYRMDYWGQGSQVTVSS” the “polyreactivity (PSR sort gate)” value was “high polyreactivity”.

With “QVQLVESGGGLVQAGGSLRLSCAASGRIIRYYAMGWYRQAPGKERELVATISRSGGSTFYADSVKGRFTISRDNAKNTVYLQMNSLKPEDTAVYYCNARYQTGGYGYWGQGTQVTVSS” the “polyreactivity (PSR sort gate)” value was “high polyreactivity”.

With “QVQLVESGGGLVQAGGSLRLSCAASGSIFDPYAMGWYRQAPGKERELVAAISGSGGSTYYADSVKGRFTISRDNAKNTVYLQMNSLKPEDTALYFCAAADAWWGRRYKYYHWGQGPQVTVSS” the “polyreactivity (PSR sort gate)” value was “low polyreactivity”.
